Where a chain is given by its changes, count along the chain named. Names and notes keep the numbering of the source.
Tests used:
[1] = biological target: T1, rHuman EGF R/Fc Chimera, CF (R&D Systems Cat#344-ER) (human, UniProt P00533 25-645); assay: ECL multispot (MSD), antigen spotted, Fab in solution; blank spot 306
T1 construct: Bought reagent

[2] = biological target: T2, rHuman IGF-1 sR (insulin-like growth factor-1 soluble receptor), CF (R&D Systems Cat#391-GR) (human, UniProt P08069 31-932); assay: as above
T2 construct: Bought soluble receptor

[3] = biological target: T3, Recombinant Human DLL4 (R&D Systems Cat#1506-D4/CF) (human, UniProt Q9NR61 27-524); assay: as above
T3 construct: Bought recombinant protein; also called delta-like protein 4; rHuman DLL4

[4] = biological target: T4, rHuman P-Cadherin/Fc Chimera, CF (R&D Systems Cat#861-PC) (human, UniProt P22223 108-654); assay: as above
T4 construct: Bought reagent

[5] = biological target: T5, rHuman HGF R/c-MET/Fc Chimera, CF (R&D Systems Cat#358-MT/CF) (human, UniProt P08581 25-932); assay: as above
T5 construct: Bought reagent; also called HGF R/Fc
T5 sequence (P08581 25-932, change not shown): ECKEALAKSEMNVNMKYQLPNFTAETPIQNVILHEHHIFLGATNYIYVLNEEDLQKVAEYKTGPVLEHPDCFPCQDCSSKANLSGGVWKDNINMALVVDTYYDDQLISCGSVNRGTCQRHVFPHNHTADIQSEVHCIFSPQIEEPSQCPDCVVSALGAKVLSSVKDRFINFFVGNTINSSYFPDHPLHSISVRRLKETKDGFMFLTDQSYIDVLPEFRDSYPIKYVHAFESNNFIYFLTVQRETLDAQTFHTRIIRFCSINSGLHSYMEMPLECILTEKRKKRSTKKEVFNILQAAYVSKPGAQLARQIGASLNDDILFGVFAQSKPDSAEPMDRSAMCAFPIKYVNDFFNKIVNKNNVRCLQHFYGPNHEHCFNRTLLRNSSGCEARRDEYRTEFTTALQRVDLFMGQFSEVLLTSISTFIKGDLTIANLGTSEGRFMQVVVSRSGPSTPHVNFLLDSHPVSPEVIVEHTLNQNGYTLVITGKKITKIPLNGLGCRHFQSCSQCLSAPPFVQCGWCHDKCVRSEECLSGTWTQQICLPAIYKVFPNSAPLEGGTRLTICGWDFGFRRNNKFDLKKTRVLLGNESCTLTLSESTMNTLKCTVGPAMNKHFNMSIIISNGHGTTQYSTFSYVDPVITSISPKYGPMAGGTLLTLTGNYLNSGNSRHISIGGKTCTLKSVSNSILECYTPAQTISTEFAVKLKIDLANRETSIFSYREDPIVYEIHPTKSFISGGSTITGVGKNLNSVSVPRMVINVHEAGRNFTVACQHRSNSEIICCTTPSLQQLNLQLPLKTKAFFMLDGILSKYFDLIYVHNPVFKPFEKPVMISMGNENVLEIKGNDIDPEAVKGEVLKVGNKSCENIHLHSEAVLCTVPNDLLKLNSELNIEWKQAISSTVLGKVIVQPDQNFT

[6] = biological target: T6, rHuman ErbB2/Fc Chimera, CF (R&D Systems Cat#1129-ER) (human, UniProt P04626 23-652); assay: as above
T6 construct: Bought reagent

[7] = biological target: T7, rHuman Notch-1/Fc Chimera, CF (R&D Systems Cat#3647-TK) (human, UniProt P46531 19-526); assay: ECL multispot (MSD), antigen spotted, Fab in solution; blank spot 356
T7 construct: Bought reagent

[8] = biological target: T8, rHuman Erythropoietin R/Fc Chimera, CF (R&D Systems Cat#963-ER) (human, UniProt P19235 25-250); assay: as above
T8 construct: Bought reagent; also called EPO R; Epo R/Fc
T8 sequence (looked up): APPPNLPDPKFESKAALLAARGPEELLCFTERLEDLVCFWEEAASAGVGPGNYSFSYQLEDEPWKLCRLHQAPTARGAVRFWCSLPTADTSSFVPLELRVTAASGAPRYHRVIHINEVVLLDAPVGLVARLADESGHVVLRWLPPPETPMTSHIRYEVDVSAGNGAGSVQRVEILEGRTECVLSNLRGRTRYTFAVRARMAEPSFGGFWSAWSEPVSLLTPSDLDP

[9] = biological target: T1, rHuman EGF R/Fc Chimera, CF (R&D …); assay: as above
[10] = biological target: T2, rHuman IGF-1 sR (insulin-like growth …); assay: as above
[11] = biological target: T3, Recombinant Human DLL4 (R&D Systems …); assay: as above
[12] = biological target: T9, rHuman CD44/Fc Chimera, CF (R&D Systems Cat#3660-CD) (human, UniProt P16070 21-220); assay: as above
T9 construct: Bought reagent

[13] = biological target: T4, rHuman P-Cadherin/Fc Chimera, CF (R&D …); assay: as above
[14] = biological target: T5, rHuman HGF R/c-MET/Fc Chimera, CF (R&D …); assay: as above
[15] = biological target: T6, rHuman ErbB2/Fc Chimera, CF (R&D …); assay: as above
[16] = biological target: T7, rHuman Notch-1/Fc Chimera, CF (R&D …); assay: ECL multispot (MSD), antigen spotted, Fab in solution; blank spot 272
[17] = biological target: T8, rHuman Erythropoietin R/Fc Chimera, CF …; assay: as above
[18] = biological target: T1, rHuman EGF R/Fc Chimera, CF (R&D …); assay: as above
[19] = biological target: T2, rHuman IGF-1 sR (insulin-like growth …); assay: as above
[20] = biological target: T3, Recombinant Human DLL4 (R&D Systems …); assay: as above
[21] = biological target: T9, rHuman CD44/Fc Chimera, CF (R&D Systems …); assay: as above
[22] = biological target: T4, rHuman P-Cadherin/Fc Chimera, CF (R&D …); assay: as above
[23] = biological target: T5, rHuman HGF R/c-MET/Fc Chimera, CF (R&D …); assay: as above
[24] = biological target: T6, rHuman ErbB2/Fc Chimera, CF (R&D …); assay: as above
[25] = biological target: T7, rHuman Notch-1/Fc Chimera, CF (R&D …); assay: ECL multispot (MSD), antigen spotted, Fab in solution; blank spot 198
[26] = biological target: T8, rHuman Erythropoietin R/Fc Chimera, CF …; assay: as above
[27] = biological target: T1, rHuman EGF R/Fc Chimera, CF (R&D …); assay: as above
[28] = biological target: T2, rHuman IGF-1 sR (insulin-like growth …); assay: as above
[29] = biological target: T3, Recombinant Human DLL4 (R&D Systems …); assay: as above
[30] = biological target: T9, rHuman CD44/Fc Chimera, CF (R&D Systems …); assay: as above
[31] = biological target: T4, rHuman P-Cadherin/Fc Chimera, CF (R&D …); assay: as above
[32] = biological target: T5, rHuman HGF R/c-MET/Fc Chimera, CF (R&D …); assay: as above
[33] = biological target: T6, rHuman ErbB2/Fc Chimera, CF (R&D …); assay: as above
[34] = biological target: T7, rHuman Notch-1/Fc Chimera, CF (R&D …); assay: ECL multispot (MSD), antigen spotted, Fab in solution; blank spot 289
[35] = biological target: T8, rHuman Erythropoietin R/Fc Chimera, CF …; assay: as above
[36] = biological target: T1, rHuman EGF R/Fc Chimera, CF (R&D …); assay: as above
[37] = biological target: T2, rHuman IGF-1 sR (insulin-like growth …); assay: as above
[38] = biological target: T3, Recombinant Human DLL4 (R&D Systems …); assay: as above
[39] = biological target: T9, rHuman CD44/Fc Chimera, CF (R&D Systems …); assay: as above
[40] = biological target: T4, rHuman P-Cadherin/Fc Chimera, CF (R&D …); assay: as above
[41] = biological target: T5, rHuman HGF R/c-MET/Fc Chimera, CF (R&D …); assay: as above
[42] = biological target: T6, rHuman ErbB2/Fc Chimera, CF (R&D …); assay: as above

B1: Fab VH1-46_IGHD6-6*01_IGHJ1*01 S102A/S103P/S104F/H111F (APFF) & L6_IGKJ1*01 (Fab, V domains shown)
VH: QVQLVQSGAEVKKPGASVKVSCKASGYTFTSYYMHWVRQAPGQGLEWMGIINPSGGSTSYAQKFQGRVTMTRDTSTSTVYMELSSLRSEDTAVYYCAREEYAPFSAEYFQFWGQGTLVTVSS
VL: not shown
notes: Tested as Fab made in E. coli: VH joined to CH1 from Plasmid A (His6 and Flag tags), VL joined to kappa CL from Plasmid C; Light chain unmutated (parent); also called APFF / parent; H:APFF & L:wt
How did the ECL signal [1] turn out when B1 was run?
Its ECL signal is 386.

And the ECL signal [2]?
The ECL signal was 409.

And the ECL signal [3]?
Its ECL signal is 208000.

And the ECL signal [4]?
Its ECL signal is 466.

What about the ECL signal [5] of the same binder?
The ECL signal was 349.

What about the ECL signal [6] of the same binder?
The ECL signal was 412.

B2: Fab VH1-46_IGHD6-6*01_IGHJ1*01 S102A/S103P/S104F/H111F (APFF) & L6_IGKJ1*01 S30A (Fab, V domains shown)
VH: B1 VH
VL: EIVLTQSPATLSLSPGERATLSCRASQSVASYLAWYQQKPGQAPRLLIYDASNRATGIPARFSGSGSGTDFTLTISSLEPEDFAVYYCQQRSNWPPWTFGQGTKVEIKR
notes: Tested as Fab made in E. coli: VH joined to CH1 from Plasmid A (His6 and Flag tags), VL joined to kappa CL from Plasmid C; also called APFF / S30A
Which results are given for B2?
ECL signal [7]: 380; ECL signal [8]: 561; ECL signal [9]: 322; ECL signal [10]: 400; ECL signal [11]: 184000; ECL signal [12]: 390; ECL signal [13]: 454; ECL signal [14]: 414; ECL signal [15]: 251

B3: Fab VH1-46_IGHD6-6*01_IGHJ1*01 S102A/S103P/S104F/H111F (APFF) & L6_IGKJ1*01 S30G (Fab, V domains shown)
VH: B1 VH
VL: B2 VL with A30G
notes: Tested as Fab made in E. coli: VH joined to CH1 from Plasmid A (His6 and Flag tags), VL joined to kappa CL from Plasmid C; also called APFF / S30G
B3 was tested. Which ECL signal [16] did it give?
Its ECL signal is 382.

What about the ECL signal [17] of the same binder?
The ECL signal was 485.

And the ECL signal [18]?
The ECL signal was 387.

What about the ECL signal [19] of the same binder?
Its ECL signal is 393.

What about the ECL signal [20] of the same binder?
Its ECL signal is 180000.

What about the ECL signal [21] of the same binder?
Its ECL signal is 427.

What about the ECL signal [22] of the same binder?
The ECL signal was 369.

What about the ECL signal [23] of the same binder?
Its ECL signal is 355.

And the ECL signal [24]?
The ECL signal was 404.

B4: Fab VH1-46_IGHD6-6*01_IGHJ1*01 S102A/S103P/S104F/H111F (APFF) & L6_IGKJ1*01 S30Q (Fab, V domains shown)
VH: B1 VH
VL: B2 VL with A30Q
notes: Tested as Fab made in E. coli: VH joined to CH1 from Plasmid A (His6 and Flag tags), VL joined to kappa CL from Plasmid C; also called APFF / S30Q
How did the ECL signal [25] turn out when B4 was run?
The ECL signal was 243.

And the ECL signal [26]?
The ECL signal was 423.

What about the ECL signal [27] of the same binder?
The ECL signal was 353.

What about the ECL signal [28] of the same binder?
Its ECL signal is 342.

What about the ECL signal [29] of the same binder?
Its ECL signal is 203000.

And the ECL signal [30]?
Its ECL signal is 400.

What about the ECL signal [31] of the same binder?
Its ECL signal is 298.

And the ECL signal [32]?
The ECL signal was 339.

What about the ECL signal [33] of the same binder?
Its ECL signal is 262.

B5: Fab VH1-46_IGHD6-6*01_IGHJ1*01 S102A/S103P/S104F/H111F (APFF) & L6_IGKJ1*01 S30W (Fab, V domains shown)
VH: B1 VH
VL: B2 VL with A30W
notes: Tested as Fab made in E. coli: VH joined to CH1 from Plasmid A (His6 and Flag tags), VL joined to kappa CL from Plasmid C; also called APFF / S30W
Which ECL signal [34] does the source give for B5 here?
Its ECL signal is 372.

And the ECL signal [35]?
The ECL signal was 542.

What about the ECL signal [36] of the same binder?
Its ECL signal is 398.

What about the ECL signal [37] of the same binder?
Its ECL signal is 471.

What about the ECL signal [38] of the same binder?
Its ECL signal is 191000.

And the ECL signal [39]?
The ECL signal was 500.

What about the ECL signal [40] of the same binder?
Its ECL signal is 342.

What about the ECL signal [41] of the same binder?
The ECL signal was 399.

And the ECL signal [42]?
The ECL signal was 289.
